Data as given in article PMC3959867 (Science (New York, N.Y.), 2012).

Tests used:
[1] = target: K11V-TR, cylindrin tandem repeat V2L variant; assay: SEC
[2] = target: K11V-TR, cylindrin tandem repeat V2L variant; assay: crystal structure
[3] = target: K11V-TR, cylindrin tandem repeat V2L variant; assay: native MS
[4] = target: the molecule itself; assay: crystal structure

Row | stoichiometry N [1] | stoichiometry N [2] | stoichiometry N [3] | Molecule | binding result [4]
1 | 3 | 3 | 3 | K11V-TR, cylindrin tandem repeat V2L variant (peptide) | 
2 |  |  |  | GDVIEV [G6V, six-residue segment GDVIEV of alphaB crystallin] | binds
